# Data: publication PMC5023282, “A rapid fluorometric assay for the S-malonyltransacylase FabD and other sulfhydryl utilizing enzymes” (Journal of Biological Methods, 2016)
# B1: FabH (β-ketoacyl-ACP synthase III; keto-acylsynthase III) (Escherichia coli K-12) (protein)
# chain: MYTKIIGTGSYLPEQVRTNADLEKMVDTSDEWIVTRTGIRERHIAAPNETVSTMGFEAATRAIEMAGIEKDQIGLIVVATTSATHAFPSAACQIQSMLGIKGCPAFDVAAACAGFTYALSVADQYVKSGAVKYALVVGSDVLARTCDPTDRGTIIIFGDGAGAAVLAASEEPGIISTHLHADGSYGELLTLPNADRVNPENSIHLTMAGNEVFKVAVTELAHIVDETLAANNLDRSQLDWLVPHQANLRIISATAKKLGMSMDNVVVTLDRHGNTSAASVPCALDEAVRDGRIKPGQLVLLEAFGGGFTWGSALVRF
# notes: purified by anion exchange, blue sepharose and S200 columns, as described previously; no tag mentioned
# Substrate: CC(=O)SCCNC(=O)CCNC(=O)[C@H](O)C(C)(C)COP(=O)(O)OP(=O)(O)OC[C@H]1O[C@@H](n2cnc3c(N)ncnc32)[C@H](O)[C@@H]1OP(=O)(O)O
# Experiment: CPM fluorescence detection of released CoA-SH, initial rates
# Type: biochemical, Escherichia coli
# Conditions: malonyl-ACP 80 µM (about 40% pure; table note 75 µM), 20 mM phosphate, 50 mM KCl, 1 mg/ml BSA, pH 7.0, 30°C
# From the text: CPM fluorescence detection of released CoA-SH, initial rates on FabH (β-ketoacyl-ACP synthase III; keto-acylsynthase III)
protein,measurement,value
B1,Km,60 ± 20 µM
